The target of assay [1] is lysozyme, fluorescence-labeled with Alexa Fluor 488. Put plainly: grade of lysozyme carrying rate in the summary table (A: equal to or higher than 50%).
Assay [2] shares this target. The experiment in a line: fluorescent lysozyme retained in the sponge after 3 h in 10x diluted PBS; supernatant fluorescence, plate reader.
The target is the same in assay [3]. The experiment in a line: grade of lysozyme carrying rate in the summary table (B: 25% or higher and less than 50%).
For assay [4] the target is unchanged. The experiment in a line: grade of lysozyme carrying rate in the summary table (C: less than 25%).

The substance “member for a preparation "A": thermally crosslinked substance of CBE3 and succinylated CBE3, molar ratio of CBE3 to succinylated CBE3 = 1 to 3” returned a lysozyme carrying rate in assay [1] above 50%. The lysozyme carrying rate (actual measurement value) in assay [2] is 71%.

Consider “member for a preparation "B": thermally crosslinked substance of CBE3 and succinylated CBE3, molar ratio of CBE3 to succinylated CBE3 = 1 to 1”, for which the lysozyme carrying rate (actual measurement value) in assay [2] came to 66%.

In turn, “member for a preparation "C": thermally crosslinked substance of CBE3 and succinylated CBE3, molar ratio of CBE3 to succinylated CBE3 = 3 to 1” had a lysozyme carrying rate (actual measurement value) in assay [2] of 38%. In assay [3], the lysozyme carrying rate is 25 to 50%.

Consider “member for a preparation "G": thermally crosslinked CBE3 only, molar ratio of CBE3 to succinylated CBE3 = 1 to 0”, for which the lysozyme carrying rate in assay [4] is below 25%. In assay [2], this substance had a lysozyme carrying rate (actual measurement value) of 8%.

Source of the values: US20190017046A1.
